Test results as given in article PMC9241078.

B1: BigR4 alpha5 domain peptide mutant H102A (L2) (Mycobacterium smegmatis; H102A) (peptide)
chain: DAHLAHIVVDAIAHASEDRR
B2: BigR4 alpha5 metal-binding domain peptide (L1), HTH ArsR-type transcriptional regulator fragment 101-120 (Mycobacterium smegmatis) (peptide)
chain: DHHLAHIVVDAIAHASEDRR
B3: SmtB alpha5 metal-binding domain peptide (L4), HTH-type transcriptional repressor SmtB fragment 116-135 (Mycobacterium tuberculosis) (peptide)
chain: DHHLAHIVLDAVAHAGEDAI
B4: BigR4 alpha5 domain peptide mutant H106A (L3) (Mycobacterium smegmatis; H106A) (peptide)
chain: DHHLAAIVVDAIAHASEDRR

Assays:
Experiment in all cases: potentiometry
Glu117 = conditions: 298 K, 0.1 M KCl, none (peptide dissolved in 4 x 10^-3 M HCl)
Cterm120 = conditions: 298 K; 0.1 M KCl; none (peptide dissolved in 4 x 10^-3 M HCl); metal-free peptide. Ligand concentration is 0.5 mM in Methods, but the Table 3 footnote says 0.001 M.
[1] = target: Glu132 (UniProt position 132, …--); conditions: 298 K; 0.1 M KCl; none (peptide dissolved in 4 x 10^-3 M HCl); metal-free peptide. Ligand concentration is 0.5 mM in Methods, but the Table 3 footnote says 0.001 M.
[2] = target: Cterm135 (UniProt position 135, AGEDAI-----); conditions: 298 K; 0.1 M KCl; none (peptide dissolved in 4 x 10^-3 M HCl); metal-free peptide. Ligand concentration is 0.5 mM in Methods, but the Table 3 footnote says 0.001 M.
[3] = metal-free peptide. Ligand concentration is 0.5 mM in Methods, but the Table 3 footnote says 0.001 M.

Row | Protein | pKa (Glu117; Ni(II)-bound, metal to ligand 1:1 (NiH4L to NiH3L step)) | pKa (Glu117; [3]) | pKa (Cterm120) | pKa [1] | pKa [2]
1 | B1 | 5.61 | 6.10 | 3.35 | – | –
2 | B2 | – | 5.80 | 3.23 | – | –
3 | B3 | – | – | – | 5.74 | 3.16
4 | B4 | – | 5,91 | 2,97 | – | –
